Data on one molecule can be found in patent publication US20140223606, “COMPOSITIONS AND METHODS COMPRISING SEQUENCES HAVING MEGANUCLEASE ACTIVITY” (PIONEER HI BRED INTERNATIONAL INC, published 2014).

Holding throughout (details): tags: NLS, 6xHis
One data set concerns the target T1, LIG3-4(A4) (artificial).
T1 chain: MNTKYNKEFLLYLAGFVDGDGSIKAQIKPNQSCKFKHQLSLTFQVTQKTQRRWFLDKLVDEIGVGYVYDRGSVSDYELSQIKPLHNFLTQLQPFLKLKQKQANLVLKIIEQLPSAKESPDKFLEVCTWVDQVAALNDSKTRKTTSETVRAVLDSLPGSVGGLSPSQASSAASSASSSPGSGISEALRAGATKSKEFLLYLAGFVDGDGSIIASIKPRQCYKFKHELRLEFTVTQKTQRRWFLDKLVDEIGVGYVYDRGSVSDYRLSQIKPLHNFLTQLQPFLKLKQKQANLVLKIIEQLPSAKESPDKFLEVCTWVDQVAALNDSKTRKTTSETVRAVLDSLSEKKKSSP
As to the kind of experiment: cell_activity; yeast 30 C; 22 C: 0. How it is done:
(§1) A 3 mL culture of selective media (MP Biomedical) was inoculated with a single colony of the yeast screening strain and grown at 30° C. overnight. On the following day, a 50 ml YPD culture (MP Biomedical) was started with 2 ml of the overnight culture and grown at 30° C. overnight. On the following day, the cells were harvested by centrifugation at 4000 rpm. The cells were resuspended in 100 ml ice cold water and centrifuged again. The cells were then washed in 1.2 M sorbitol, followed by treatment with 2 ml of 10 mM Tris pH 8.0, 1 mM EDTA, 100 mM Lithium acetate, 10 mM DTT, 0.6M sorbitol for 30 minutes at 30° C. with shaking. The cells were recovered by centrifugation, washed in 40 ml 1.2M sorbitol and finally resuspended in 250 microliters of 1.2M sorbitol. 50 microliter aliquots were transferred to test tubes on ice. Up to 5 microliters of DNA (100-500 nanograms) were added. The suspension was transferred to a 0.2 cm electroporation cuvette, on ice. Electroporation was performed with a pulse charge at 1.5 kV, 200 ohms, 25 microF (pulse time of 5 milliseconds). 1 mL YPD media (MP Biomedical) was added and the cells were allowed to recover at 30° C. for 1-2 hr. The cells were centrifuged, resuspended in 100 uL 1M sorbitol and plated on selective media lacking leucine and containing 2% galactose. The resulting yeast colonies were incubated at various temperatures ranging from 22 to 37 degrees Celsius for 7-10 days. I-CreI and meganucleases derived from it have maximal activity at or above 37 degrees Celsius. Screening was performed at a range of temperatures from 22 to 37 degrees in order to observe increases in activity at lower temperatures which are relevant to certain biological systems (eg. plant cells, plant cell cultures, etc). At that time the red/white sectoring phenotype, indicative of meganuclease activity was observed. Colonies with increased white sectoring over the parental meganuclease (indicating colonies expressing a meganuclease with increased meganuclease activity), also referred to as “hits” and sometimes completely white, were isolated for further analysis.

The next data set has as its target T2, LIG3-4(B36) (artificial).
T2 chain: T1 chain with G71K, V132I, G258K, V319I
The experiment in a line: cell_activity; yeast 30 C; 22 C: 0. How it is done: as §1

A further data set concerns the target T3, LIG3-4(B38) (artificial).
T3 chain: T1 chain with S22C, V132I, G258P, V319I
As to the kind of experiment: cell_activity; yeast 30 C; 22 C: 0. How it is done: as §1

Another data set concerns the target T4, LIG3-4(B55) (artificial).
T4 chain: T1 chain with S22C, V132I, S209C, G258K, V319I
The experiment in a line: cell_activity; yeast 30 C; 22 C: 0. On the procedure:
as §1

The target of another data set is T5, LIG3-4(B78) (artificial).
T5 chain: T1 chain with S22C, G71P, V132I, G258K, V319I, K345N, K346N
As to the kind of experiment: cell_activity; yeast 30 C; 22 C: 4. On the procedure: as §1

Residue numbers refer to the chain shown, from its start.

B1: LIG3-4 recognition site (dsDNA)
DNA 1: ATATACCTCACACGTACGCGTA
DNA 2: TACGCGTACGTGTGAGGTATAT
With B1, the activity in the data set with LIG3-4(A4) was determined as 3.5 score 0-4; with LIG3-4(B36), 4 score 0-4; with LIG3-4(B38), 4 score 0-4; in the data set with LIG3-4(B55) it was 4 score 0-4; with LIG3-4(B78), 4 score 0-4.
